Results as given in patent publication US20230265151A1, “GIP/GLP1 CO-AGONIST COMPOUNDS” (priority 2020, published 2023).
Positions count from the first letter of the chain named.

T1: human GIP receptor (human, UniProt P48546 22-466)
T1 construct: whole, on cells; also called hGIPR; human glucose-dependent insulinotropic polypeptide receptor
T1 sequence (looked up): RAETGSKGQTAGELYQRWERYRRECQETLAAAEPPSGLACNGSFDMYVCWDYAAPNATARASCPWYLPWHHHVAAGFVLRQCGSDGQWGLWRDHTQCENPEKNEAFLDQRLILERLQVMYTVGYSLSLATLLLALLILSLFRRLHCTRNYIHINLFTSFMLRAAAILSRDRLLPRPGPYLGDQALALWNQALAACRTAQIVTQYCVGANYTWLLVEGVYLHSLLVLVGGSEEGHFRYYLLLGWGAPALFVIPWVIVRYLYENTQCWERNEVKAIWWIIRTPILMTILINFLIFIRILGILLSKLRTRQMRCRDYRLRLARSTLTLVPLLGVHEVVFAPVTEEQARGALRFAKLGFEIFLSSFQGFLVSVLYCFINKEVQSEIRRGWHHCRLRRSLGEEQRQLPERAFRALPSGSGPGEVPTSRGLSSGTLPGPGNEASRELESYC

B1: Y-Aib-EGT-αMeF(2F)-TSD-4Pal-Aib-I-αMeL-LD-Orn-QAQ-Aib-Orn-FIK((2-[2-(2-Amino-ethoxy)-ethoxy]-acetyl)3-(γ-Glu)-CO-(CH2)12-CO2H)-αMeY-LIK((2-[2-(2-Amino-ethoxy)-e … (peptide)
peptide: YXEGTXTSDXXIXLDXQAQXXFIKXLIKGGPSSGAPPPS
modifications: Aib2, αMeF(2F)6, 4Pal10, Aib11, αMeL13, Orn16, Aib20, Orn21, K24(Z1), αMeY25, K28(Z1), C-term NH2; Z1=AEEA3-(γ-Glu)-CO-(CH2)12-CO2H
B2: Y-Aib-EGT-αMeF(2F)-TSD-4Pal-Aib-I-αMeL-LD-Orn-QAQ-Aib-Orn-FIK(PEG5-(γ-Glu)-CO-(CH2)12-CO2H)-αMeY-LIK(PEG5-(γ-Glu)-CO-(CH2)12-CO2H)GGPSSGAPPPS-NH2 (peptide)
peptide: B1 peptide
modifications: Aib2, αMeF(2F)6, 4Pal10, Aib11, αMeL13, Orn16, Aib20, Orn21, K24(Z1), αMeY25, K28(Z1), C-term NH2; Z1=PEG5-(γ-Glu)-CO-(CH2)12-CO2H
B3: Y-Aib-EGT-αMeF(2F)-TSD-4Pal-Aib-I-αMeL-LD-Orn-QAQ-Aib-Orn-FIK((2-[2-(2-Amino-ethoxy)-ethoxy]-acetyl)2-(γ-Glu)2--(10-(4-carboxyphenoxy)decanoyl))-αMeY-LIK((2-[2- … (peptide)
peptide: B1 peptide
modifications: Aib2, αMeF(2F)6, 4Pal10, Aib11, αMeL13, Orn16, Aib20, Orn21, K24(Z1), αMeY25, K28(Z1), C-term NH2; Z1=AEEA2-(γ-Glu)2-(10-(4-carboxyphenoxy)decanoyl)
B4: Y-Aib-EGT-αMeF(2F)-TSD-4Pal-Aib-I-αMeL-LD-Orn-QAQ-Aib-Orn-FIK(((2-[2-(2-Amino-ethoxy)-ethoxy]-acetyl)2--Trx-(γ-Glu)-(10-(4-carboxyphenoxy)decanoyl))-αMeY-LIK((( … (peptide)
peptide: B1 peptide
modifications: Aib2, αMeF(2F)6, 4Pal10, Aib11, αMeL13, Orn16, Aib20, Orn21, K24(Z1), αMeY25, K28(Z1), C-term NH2; Z1=AEEA2-Trx-(γ-Glu)-(10-(4-carboxyphenoxy)decanoyl)
B5: Y-Aib-EGT-αMeF(2F)-TSD-4Pal-Aib-I-αMeL-LD-Orn-QAQ-Aib-Orn-FIK((γ-Glu)-(2-[2-(2-Amino-ethoxy)-ethoxy]-acetyl)2-(γ-Glu)-(10-(4-carboxyphenoxy)decanoyl))-αMeY-LIK( … (peptide)
peptide: B1 peptide
modifications: Aib2, αMeF(2F)6, 4Pal10, Aib11, αMeL13, Orn16, Aib20, Orn21, K24(Z1), αMeY25, K28(Z1), C-term NH2; Z1=(γ-Glu)-AEEA2-(γ-Glu)-(10-(4-carboxyphenoxy)decanoyl)
B6: Y-Aib-EGT-αMeF(2F)-TSD-4Pal-Aib-I-αMeL-LD-Orn-QAQ-Aib-Orn-FIK(PEG3-(γ-Glu)-CO-(CH2)12-CO2H)-αMeY-LIK(PEG3-(γ-Glu)-CO-(CH2)12-CO2H)GGPSSGAPPPS-NH2 (peptide)
peptide: B1 peptide
modifications: Aib2, αMeF(2F)6, 4Pal10, Aib11, αMeL13, Orn16, Aib20, Orn21, K24(Z1), αMeY25, K28(Z1), C-term NH2; Z1=PEG3-(γ-Glu)-CO-(CH2)12-CO2H
B7: Y-Aib-EGT-αMeF(2F)-TSD-4Pal-Aib-I-αMeL-LD-Orn-QAQ-Aib-Orn-FIK(PEG3-(γ-Glu)-(10-(4-carboxyphenoxy)decanoyl))-αMeY-LIK(PEG3-(γ-Glu)-(10-(4-carboxyphenoxy)decanoyl … (peptide)
peptide: B1 peptide
modifications: Aib2, αMeF(2F)6, 4Pal10, Aib11, αMeL13, Orn16, Aib20, Orn21, K24(Z1), αMeY25, K28(Z1), C-term NH2; Z1=PEG3-(γ-Glu)-(10-(4-carboxyphenoxy)decanoyl)
B8: Y-Aib-EGT-αMeF(2F)-TSDY-Aib-I-αMeL-LD-Orn-QAQ-Aib-Orn-FIK((2-[2-(2-Amino-ethoxy)-ethoxy]-acetyl)2-(γ-Glu)2-CO-(CH2)12-CO2H)-αMeY-LIK((2-[2-(2-Amino-ethoxy)-etho … (peptide)
peptide: B1 peptide with X10Y
modifications: Aib2, αMeF(2F)6, Aib11, αMeL13, Orn16, Aib20, Orn21, K24(Z1), αMeY25, K28(Z1), C-term NH2; Z1=AEEA2-(γ-Glu)2-CO-(CH2)12-CO2H
B9: Y-Aib-EGT-αMeF(2F)-TSD-4Pal-Aib-I-αMeL-LD-Orn-QAQ-Aib-Orn-FIK((2-[2-(2-Amino-ethoxy)-ethoxy]-acetyl)-(γ-Glu)-(10-(4-carboxyphenoxy)decanoyl))-αMeY-LIK((2-[2-(2- … (peptide)
peptide: B1 peptide
modifications: Aib2, αMeF(2F)6, 4Pal10, Aib11, αMeL13, Orn16, Aib20, Orn21, K24(Z1), αMeY25, K28(Z1), C-term NH2; Z1=AEEA-(γ-Glu)-(10-(4-carboxyphenoxy)decanoyl)

target: T1, human GIP receptor; assay: SPA competition vs [125I]-GIP, hGIPR membranes

B1 and B2 are within 1.5-fold of each other in Ki: 0.0351 nM for the first, 0.0486 nM for the second.

Compared with B3, B4 is 1.7-fold higher in Ki: 0.0294 nM for the first, 0.0493 nM for the second.

B5 and B6 are within 1.5-fold of each other in Ki: 0.0236 nM for the first, 0.0232 nM for the second.

Going from B7 to B8, the Ki rises from 0.0102 nM to 0.0368 nM (3.6-fold). The first binds more tightly here.

Work on B9 yielded a Ki of 0.0183 nM.

target: T2, human glucagon receptor (human, UniProt P47871 26-477); assay: SPA competition vs [125I]-Gcg, hGcgR membranes
T2 construct: whole, on cells; also called hGCGR; hGcgR
T2 sequence (P47871 26-477): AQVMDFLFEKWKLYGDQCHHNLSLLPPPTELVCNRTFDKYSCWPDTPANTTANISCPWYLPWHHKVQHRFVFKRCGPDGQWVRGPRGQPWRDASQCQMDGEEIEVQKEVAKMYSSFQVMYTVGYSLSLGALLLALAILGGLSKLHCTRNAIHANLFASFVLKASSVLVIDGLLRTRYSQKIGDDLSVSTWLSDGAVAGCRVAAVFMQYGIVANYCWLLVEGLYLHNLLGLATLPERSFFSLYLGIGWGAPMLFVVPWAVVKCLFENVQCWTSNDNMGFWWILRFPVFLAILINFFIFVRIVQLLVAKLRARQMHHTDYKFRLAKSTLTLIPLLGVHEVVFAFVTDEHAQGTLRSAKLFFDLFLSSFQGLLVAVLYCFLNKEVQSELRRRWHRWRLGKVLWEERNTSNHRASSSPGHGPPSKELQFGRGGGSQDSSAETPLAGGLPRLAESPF

Going from B1 to B2, the Ki falls from 605 nM to 208 nM (2.9-fold). The second binds more tightly here.

Going from B3 to B4, the Ki rises from 139 nM to 452 nM (3.3-fold). The first binds more tightly here.

B5 and B6 are within 1.5-fold of each other in Ki: 151 nM for the first, 170 nM for the second.

B7 and B8 are within 1.5-fold of each other in Ki: 87.5 nM for the first, 88.5 nM for the second.

B9 was tested, and the Ki was 54.5 nM.

target: T3, human GLP-1 receptor (human, UniProt P43220 24-463); assay: SPA competition vs [125I]-GLP-1, hGLP-1R membranes
T3 construct: whole, on cells; also called hGLP-1R; human glucagon-like peptide-1 receptor
Summary of the method: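 Kᵢ values are geometric means (SEM) over replicates run on separate days, derived from IC₅₀ of four-parameter curve fits. Buffer: HEPES 25 mM pH 7.4 with CaCl₂ 2.5 mM, MgCl₂ 1 mM, bacitracin 0.1%, TWEEN-20 0.003%, EDTA-free protease inhibitors.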

Going from B1 to B2, the Ki rises from 0.226 nM to 0.381 nM (1.7-fold).

B3 and B4 are within 1.5-fold of each other in Ki: 0.189 nM for the first, 0.197 nM for the second.

B5 and B6 are within 1.5-fold of each other in Ki: 0.263 nM for the first, 0.266 nM for the second.

Going from B7 to B8, the Ki rises from 0.125 nM to 0.307 nM (2.5-fold).

Work on B9 yielded a Ki of 0.143 nM.
